*1 amine or outer side, *2 acyl side, *3 side chain or, on linkers, in order; H or OH if unused. Bridges are numbered along the chain shown (N, C = ends). Primed or numbered codes have the meaning given here. Where no end group is shown, it is not given here. [ ]: non-standard residue; d: D form. 4‑Aminomethyl‑phenylacetyl = 4-aminomethyl-phenylacetyl unit, its amine closes the lactam, O=C(Cc1ccc(CN[*:1])cc1)[*:2]; 1,3‑dibromopropan‑2‑one = linker (CAS 816-39-7) joining two Cys as 1,3-dithio-propan-2-one bridge -SCH2C(=O)CH2S-; Q(pyrrolidin)″ = (2S)-2-amino-5-oxo-5-pyrrolidin-1-yl-pentanoic acid, O=C(CC[C@H](N[*:1])C(=O)[*:2])N1CCCC1; 1,3‑dibromopropan‑2‑one(3) = linker giving 1,3-dithio-propan-2-one bridge -SCH2C(=O)CH2S- between Cys; 4‑Aminomethyl‑phenylacetyl″ = N-terminal cap residue, O=C(Cc1ccc(CN[*:1])cc1)[*:2]; Ala(quinolin-3-yl) = N[C@@H](Cc1cnc2ccccc2c1)C(=O)O; Phe(3,4-Me2) = Cc1ccc(C[C@H](N)C(=O)O)cc1C; 2Nal = N[C@@H](Cc1ccc2ccccc2c1)C(=O)O; AEF = NCCOc1ccc(C[C@H](N)C(=O)O)cc1; 3Pal = N[C@@H](Cc1cccnc1)C(=O)O; d3Pal = N[C@H](Cc1cccnc1)C(=O)O; αMeL = CC(C)C[C@](C)(N)C(=O)O; αMeV = CC(C)[C@](C)(N)C(=O)O; 3Amb = NCc1cccc(C(=O)O)c1; Dab = NCC[C@H](N)C(=O)O
T1: human IL-23R endogenously expressed on DB cells (CRL-2289) (human, UniProt Q5VWK5 24-629)
T1 sequence (looked up): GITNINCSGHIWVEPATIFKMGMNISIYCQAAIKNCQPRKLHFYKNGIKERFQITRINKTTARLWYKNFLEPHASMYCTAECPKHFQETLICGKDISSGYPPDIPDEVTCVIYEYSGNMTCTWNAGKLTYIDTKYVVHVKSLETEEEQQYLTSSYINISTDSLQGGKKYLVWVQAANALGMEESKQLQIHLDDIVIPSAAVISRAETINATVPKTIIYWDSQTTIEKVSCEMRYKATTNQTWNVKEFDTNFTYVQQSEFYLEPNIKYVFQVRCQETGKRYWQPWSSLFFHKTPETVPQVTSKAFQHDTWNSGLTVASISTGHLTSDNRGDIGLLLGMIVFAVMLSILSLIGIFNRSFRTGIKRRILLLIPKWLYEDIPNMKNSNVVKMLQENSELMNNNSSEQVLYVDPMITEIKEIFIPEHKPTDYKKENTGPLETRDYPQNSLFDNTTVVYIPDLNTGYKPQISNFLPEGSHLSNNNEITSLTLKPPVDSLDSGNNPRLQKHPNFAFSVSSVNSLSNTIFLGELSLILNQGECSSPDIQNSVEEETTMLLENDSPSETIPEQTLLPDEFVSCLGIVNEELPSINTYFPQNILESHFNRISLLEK


These binders were tested against T1, human IL-23R endogenously expressed on … (assay: cell-based or functional assay).

| IC50 (pSTAT3) | Binder |
| --- | --- |
| > 1 µM | Ac-DESCWQCWWKR-NH2 (lactam 2-10; linker 4-7 via 1,3‑dibromopropan‑2‑one) [Ref 7] |
| 0.635 nM | [4‑Aminomethyl‑phenylacetyl]IEWQ[Dab][AEF][Phe(3,4-Me2)][αMeV]EG[3Pal]-NH2 (lactam (positions not given here); lactam 3-6; not fully specified (bridges); printed as [4-Aminomethyl-phenylacetyl](1c)*IE(2c)WQ[Dab](2c)[Y(2-aminoethoxy)][F(3,4-Me)][2-Me-Val]E(1c)G[3-(3-Pyridyl)-Ala]-[NH2]) [Compound 158] |
| 0.0318 nM | [4‑Aminomethyl‑phenylacetyl]IEWQ[Dab][AEF][2Nal][αMeV]E[Dab][3Pal]-NH2 (lactam (positions not given here); lactam 3-6; not fully specified (bridges); printed as [4-Aminomethyl-phenylacetyl](1c)*IE(2c)WQ[Dab](2c)[Y(2-aminoethoxy)][2-Nal][2-Me-Val]E(1c)[Dab][3-(3-Pyridyl)-Ala]-[NH2]) [Compound 157] |
| 0.0868 nM | [3Amb]SCWQC[AEF][2Nal][αMeL]E[Dab][3Pal]-NH2 (lactam (positions not given here); linker 3-6 via 1,3‑dibromopropan‑2‑one(3); not fully specified (bridges); printed as [(3-Aminomethyl)benzoyl](1c)*SC(2a)WQC(2a)[Y(2-aminoethoxy)][2-Nal][2-Me-Leu]E(1c)[Dab][3-(3-Pyridyl)-Ala]-[NH2]) [Compound 148] |
| 0.0858 nM | [4‑Aminomethyl‑phenylacetyl″]SCWQC[AEF][2Nal][αMeL]ER[3Pal]-NH2 (lactam N-10; linker 3-6 via 1,3‑dibromopropan‑2‑one(3)) [Compound 147] |
| > 1 µM | DESTWQYWWLKR (HELM PEPTIDE1{D.E.S.T.W.Q.Y.W.W.L.K.R.[am]}$PEPTIDE1,PEPTIDE1,2:R3-11:R3$$$V2.0; SMILES CC(C)C[C@@H]1NC(=O)[C@H](Cc2c[nH]c3ccccc23)NC(=O)[C@H](Cc2c[nH]c3ccccc23)NC(=O)[C@H](Cc2ccc(O)cc2)NC(=O)[C@H](CCC(N)=O)NC(=O)[C@H](Cc2c[nH]c3ccccc23)NC(=O)[C@H]([C@@H](C)O)NC(=O)[C@H](CO)NC(=O)[C@@H](NC(=O)[C@@H](N)CC(=O)O)CCC(=O)NCCCC[C@@H](C(=O)N[C@@H](CCCNC(=N)N)C(N)=O)NC1=O) [Ref 3] |
| > 1 µM | DESSWQSWWLKR (HELM PEPTIDE1{D.E.S.S.W.Q.S.W.W.L.K.R.[am]}$PEPTIDE1,PEPTIDE1,2:R3-11:R3$$$V2.0; SMILES CC(C)C[C@@H]1NC(=O)[C@H](Cc2c[nH]c3ccccc23)NC(=O)[C@H](Cc2c[nH]c3ccccc23)NC(=O)[C@H](CO)NC(=O)[C@H](CCC(N)=O)NC(=O)[C@H](Cc2c[nH]c3ccccc23)NC(=O)[C@H](CO)NC(=O)[C@H](CO)NC(=O)[C@@H](NC(=O)[C@@H](N)CC(=O)O)CCC(=O)NCCCC[C@@H](C(=O)N[C@@H](CCCNC(=N)N)C(N)=O)NC1=O) [Ref 2] |
| 0.0857 nM | [3Amb]IEWQ[Dab][AEF][2Nal][αMeV]E[Dab][3Pal]-NH2 (lactam (positions not given here); lactam 3-6; not fully specified (bridges)) [Compound 156] |
| > 1 µM | Ac-DESCWCWWLKR-NH2 (lactam 2-10; linker 4-6 via 1,3‑dibromopropan‑2‑one) [Ref 6] |
| 4.82 nM | [3Amb]SCWQC[AEF][2Nal][αMeL]ER[Ala(quinolin-3-yl)]-NH2 (lactam (positions not given here); linker 3-6 via 1,3‑dibromopropan‑2‑one(3); not fully specified (bridges); printed as [(3-Aminomethyl)benzoyl](1c)*SC(2a)WQC(2a)][Y(2-aminoethoxy)][2-Nal][2-Me-Leu]E(1c)R[3-(3-Quinolinyl)-Ala]-[NH2]) [Compound 149] |
| 41.5 nM | [4‑Aminomethyl‑phenylacetyl]SEW[Q(pyrrolidin)″][Dab][AEF][2Nal][αMeL]E[Dab]-NH2 (lactam N-10, 3-6; SMILES CC(C)C[C@]1(C)NC(=O)[C@H](Cc2ccc3ccccc3c2)NC(=O)[C@H](Cc2ccc(OCCN)cc2)NC(=O)[C@@H]2CCNC(=O)CC[C@H](NC(=O)[C@H](CO)NC(=O)Cc3ccc(cc3)CNC(=O)CC[C@@H](C(=O)N[C@@H](CCN)C(N)=O)NC1=O)C(=O)N[C@@H](Cc1c[nH]c3ccccc13)C(=O)N[C@@H](CCC(=O)N1CCCC1)C(=O)N2) [Compound 146] |
| > 1 µM | Ac-DECWQCWWLKR-NH2 (lactam 2-10; linker 3-6 via 1,3‑dibromopropan‑2‑one) [Ref 5] |
| 14.3 nM | [3Amb]SCWQC[AEF][2Nal][αMeL]ER[d3Pal]-NH2 (lactam (positions not given here); linker 3-6 via 1,3‑dibromopropan‑2‑one(3); not fully specified (bridges); printed as [(3-Aminomethyl)benzoyl](1c)*SC(2a)WQC(2a)][Y(2-aminoethoxy)][2-Nal][2-Me-Leu]E(1c)R[{d}[3-(3-Pyridyl)-Ala]]-[NH2]) [Compound 150] |
| > 1 µM | DESMWQMWWLKR (HELM PEPTIDE1{[ac].D.E.S.M.W.Q.M.W.W.L.K.R.[am]}$PEPTIDE1,PEPTIDE1,3:R3-12:R3$$$V2.0; SMILES CSCC[C@@H]1NC(=O)[C@H](CO)NC(=O)[C@@H](NC(=O)[C@H](CC(=O)O)NC(C)=O)CCC(=O)NCCCC[C@@H](C(=O)N[C@@H](CCCNC(=N)N)C(N)=O)NC(=O)[C@H](CC(C)C)NC(=O)[C@H](Cc2c[nH]c3ccccc23)NC(=O)[C@H](Cc2c[nH]c3ccccc23)NC(=O)[C@H](CCSC)NC(=O)[C@H](CCC(N)=O)NC(=O)[C@H](Cc2c[nH]c3ccccc23)NC1=O) [Ref 4] |
| 10.7 nM | [3Amb]SCWQC[AEF][2Nal][αMeL]ER[3‑Amino‑3‑(3'-pyridyl)propionyl]-NH2 (lactam (positions not given here); linker 3-6 via 1,3‑dibromopropan‑2‑one(3); not fully specified (bridges); printed as [(3-Aminomethyl)benzoyl](1c)*SC(2a)WQC(2a)][Y(2-aminoethoxy)][2-Nal][2-Me-Leu]E(1c)R[3-Amino-3-(3′-pyridyl)propionyl]-[NH2]) [Compound 151] |

From patent US20250154198A1, “PEPTIDE INHIBITORS OF INTERLEUKIN-23 RECEPTOR” (Zealand Pharma A/S, priority 2021, published 2025)
